Results published in PMC2756588.

T1: Nbp2, Q12163
T1 sequence (Q12163 103-180, looked up): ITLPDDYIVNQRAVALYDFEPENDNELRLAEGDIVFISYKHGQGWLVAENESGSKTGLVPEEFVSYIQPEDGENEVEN

T2: Bzz1-1, P38822
T2 sequence (P38822 478-572, looked up): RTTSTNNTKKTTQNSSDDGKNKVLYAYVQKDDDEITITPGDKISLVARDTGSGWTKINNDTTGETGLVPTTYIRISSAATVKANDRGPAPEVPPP

T3: Sla1-3, P32790
T3 sequence (P32790 344-424, looked up): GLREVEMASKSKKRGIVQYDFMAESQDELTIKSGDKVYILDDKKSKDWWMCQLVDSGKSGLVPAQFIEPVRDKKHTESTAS

T4: Hof1, Q05080
T4 sequence (Q05080 590-669, looked up): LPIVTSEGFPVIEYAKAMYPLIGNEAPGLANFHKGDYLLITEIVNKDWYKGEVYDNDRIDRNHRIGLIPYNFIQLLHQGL

T5: Bzz1-2, P38822
T5 sequence (P38822 568-633, looked up): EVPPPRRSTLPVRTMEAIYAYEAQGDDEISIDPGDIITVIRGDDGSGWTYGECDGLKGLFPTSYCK

T6: Pin3, Q06449
T6 sequence (Q06449 53-122, looked up): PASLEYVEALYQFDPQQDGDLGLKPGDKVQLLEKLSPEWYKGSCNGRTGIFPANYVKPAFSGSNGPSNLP

T7: Hse1, P38753
T7 sequence (P38753 208-285, looked up): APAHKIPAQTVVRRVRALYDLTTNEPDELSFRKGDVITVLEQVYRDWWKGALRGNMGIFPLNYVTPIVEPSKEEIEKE

T8: Boi1, P38041
T8 sequence (P38041 1-86, looked up): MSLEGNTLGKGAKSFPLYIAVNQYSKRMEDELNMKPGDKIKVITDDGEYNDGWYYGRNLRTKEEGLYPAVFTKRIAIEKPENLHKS

T9: Bud14, P27637
T9 sequence (P27637 247-328, looked up): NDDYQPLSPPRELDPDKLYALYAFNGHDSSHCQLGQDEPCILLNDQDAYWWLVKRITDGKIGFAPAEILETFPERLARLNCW

T10: Lsb1, P53281
T10 sequence (P53281 45-122, looked up): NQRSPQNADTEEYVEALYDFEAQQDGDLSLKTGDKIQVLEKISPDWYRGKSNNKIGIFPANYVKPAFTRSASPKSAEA

T11: Lsb4, P32793
T11 sequence (P32793 402-468, looked up): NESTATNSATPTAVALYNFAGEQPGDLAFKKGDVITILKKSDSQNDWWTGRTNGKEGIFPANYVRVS

T12: Myo5, Q04439
T12 sequence (Q04439 1072-1160, looked up): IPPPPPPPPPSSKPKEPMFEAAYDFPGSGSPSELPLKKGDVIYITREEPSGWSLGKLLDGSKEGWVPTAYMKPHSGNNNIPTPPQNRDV

T13: Sla1-2, P32790
T13 sequence (P32790 60-140, looked up): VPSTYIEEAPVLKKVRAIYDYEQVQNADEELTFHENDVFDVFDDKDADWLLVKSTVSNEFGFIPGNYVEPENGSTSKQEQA

T14: Cyk3, Q07533
T14 sequence (Q07533 1-83, looked up): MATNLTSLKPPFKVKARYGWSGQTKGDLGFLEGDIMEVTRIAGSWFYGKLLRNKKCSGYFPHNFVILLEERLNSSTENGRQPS

T15: Bbc1, P47068
T15 sequence (P47068 1-78, looked up): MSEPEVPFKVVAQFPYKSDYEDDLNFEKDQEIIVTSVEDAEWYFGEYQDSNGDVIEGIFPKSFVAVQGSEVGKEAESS

T16: Cdc25, P04821
T16 sequence (P04821 50-136, looked up): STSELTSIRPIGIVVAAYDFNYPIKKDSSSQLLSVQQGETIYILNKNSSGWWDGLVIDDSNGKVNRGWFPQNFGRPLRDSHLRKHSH

T17: Boi2, P39969
T17 sequence (P39969 32-116, looked up): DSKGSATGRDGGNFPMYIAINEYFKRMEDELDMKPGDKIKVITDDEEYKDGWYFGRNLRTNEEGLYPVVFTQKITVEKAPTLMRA

T18: Abp1, P15891
T18 sequence (P15891 535-592, looked up): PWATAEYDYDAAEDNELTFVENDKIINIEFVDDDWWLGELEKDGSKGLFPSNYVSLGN

T19: Pex13, P80667
T19 sequence (P80667 295-386, looked up): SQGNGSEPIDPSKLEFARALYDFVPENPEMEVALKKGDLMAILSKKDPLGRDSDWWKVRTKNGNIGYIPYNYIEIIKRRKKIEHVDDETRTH

T20: Fus1, P11710
T20 sequence (P11710 432-512, looked up): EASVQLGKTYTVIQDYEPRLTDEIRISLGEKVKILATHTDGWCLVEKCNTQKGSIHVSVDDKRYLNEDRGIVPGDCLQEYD

T21: Lsb3, P43603
T21 sequence (P43603 385-451, looked up): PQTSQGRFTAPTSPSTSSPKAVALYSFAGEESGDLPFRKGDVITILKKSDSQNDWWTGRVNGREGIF

B1: unnamed (peptide)
chain: PPPPPPPPPPPLPQS
B2: unnamed (peptide)
chain: KFIPSRPAPKPPSSA
B3: unnamed (peptide)
chain: IPSRPAPKPPSSASA
B4: unnamed (peptide)
chain: AVPPPPPPPPLPESL

Legend:
Experiment in all cases: SPOT array
Nbp2, Q12163 = target: T1, Nbp2, Q12163; conditions: median of control spots 357
Bzz1-1, P38822 = target: T2, Bzz1-1, P38822; conditions: median of control spots 4446
Sla1-3, P32790 = target: T3, Sla1-3, P32790; conditions: median of control spots 5475
Rvs167, P39743 = conditions: median of control spots 2707
GST = conditions: median of control spots 978
Bem1-1, P29366 = conditions: median of control spots 4282
Hof1, Q05080 = target: T4, Hof1, Q05080; conditions: median of control spots 4086
Bzz1-2, P38822 = target: T5, Bzz1-2, P38822; conditions: median of control spots 4538
Pin3, Q06449 = target: T6, Pin3, Q06449; conditions: median of control spots 2171
Hse1, P38753 = target: T7, Hse1, P38753; conditions: median of control spots 1727
Boi1, P38041 = target: T8, Boi1, P38041; conditions: median of control spots 1162
Bud14, P27637 = target: T9, Bud14, P27637; conditions: median of control spots 956
Myo3, P36006 = conditions: median of control spots 468
Lsb1, P53281 = target: T10, Lsb1, P53281; conditions: median of control spots 388
Lsb4, P32793 = target: T11, Lsb4, P32793; conditions: median of control spots 397
Myo5, Q04439 = target: T12, Myo5, Q04439; conditions: median of control spots 471
Sla1-2, P32790 = target: T13, Sla1-2, P32790; conditions: median of control spots 712
Cyk3, Q07533 = target: T14, Cyk3, Q07533; conditions: median of control spots 1451
Bbc1, P47068 = target: T15, Bbc1, P47068; conditions: median of control spots 796
Cdc25, P04821 = target: T16, Cdc25, P04821; conditions: median of control spots 969
Boi2, P39969 = target: T17, Boi2, P39969; conditions: median of control spots 1161
Sho1, P40073 = conditions: median of control spots 1148
Abp1, P15891 = target: T18, Abp1, P15891; conditions: median of control spots 935
Pex13, P80667 = target: T19, Pex13, P80667; conditions: median of control spots 1341
Fus1, P11710 = target: T20, Fus1, P11710; conditions: median of control spots 1200
Bem1-2, P29366 = conditions: median of control spots 4347
Lsb3, P43603 = target: T21, Lsb3, P43603; conditions: median of control spots 406

Bem1-2, P29366, sequence (P29366 139-227): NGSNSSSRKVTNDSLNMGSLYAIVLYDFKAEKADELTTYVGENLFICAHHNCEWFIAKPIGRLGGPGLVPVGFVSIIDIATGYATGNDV
Bem1-1, P29366, sequence (P29366 55-141): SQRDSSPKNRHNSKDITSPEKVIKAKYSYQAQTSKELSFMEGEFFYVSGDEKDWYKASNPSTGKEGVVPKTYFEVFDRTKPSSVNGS
Sho1, P40073, sequence (P40073 287-367): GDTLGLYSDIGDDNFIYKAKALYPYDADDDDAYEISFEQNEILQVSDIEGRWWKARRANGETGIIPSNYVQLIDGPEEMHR
Rvs167, P39743, sequence (P39743 419-482): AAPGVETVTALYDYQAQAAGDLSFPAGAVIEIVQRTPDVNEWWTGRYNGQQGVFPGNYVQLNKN

Binder | SPOT intensity (Nbp2, Q12163) | SPOT intensity (Bzz1-1, P38822) | SPOT intensity (Sla1-3, P32790) | SPOT intensity (Rvs167, P39743) | SPOT intensity (GST) | SPOT intensity (Bem1-1, P29366) | SPOT intensity (Hof1, Q05080) | SPOT intensity (Bzz1-2, P38822) | SPOT intensity (Pin3, Q06449) | SPOT intensity (Hse1, P38753) | SPOT intensity (Boi1, P38041) | SPOT intensity (Bud14, P27637) | SPOT intensity (Myo3, P36006) | SPOT intensity (Lsb1, P53281) | SPOT intensity (Lsb4, P32793) | SPOT intensity (Myo5, Q04439) | SPOT intensity (Sla1-2, P32790) | SPOT intensity (Cyk3, Q07533) | SPOT intensity (Bbc1, P47068) | SPOT intensity (Cdc25, P04821) | also measured
B1 | 0 | 2 | 0 | 0 | 0 | 0 | 1 | 5 | 0 | 0 | 0 | 0 | 557 | 0 | 0 | 489 | 0 | 0 | 0 | 0 | SPOT intensity (Boi2, P39969): 0; SPOT intensity (Sho1, P40073): 0; SPOT intensity (Abp1, P15891): 0; SPOT intensity (Pex13, P80667): 3; SPOT intensity (Fus1, P11710): 2; SPOT intensity (Bem1-2, P29366): 0; SPOT intensity (Lsb3, P43603): 0
B2 | 2510 | 0 | 199 | 7 | 0 | 0 | 0 | 10 | 8 | 2 | 0 | 0 | 527 | 692 | 78 | 339 | 0 | 0 | 316 | 0 | SPOT intensity (Boi2, P39969): 0; SPOT intensity (Sho1, P40073): 47; SPOT intensity (Abp1, P15891): 193; SPOT intensity (Pex13, P80667): 221; SPOT intensity (Fus1, P11710): 0; SPOT intensity (Bem1-2, P29366): 7700; SPOT intensity (Lsb3, P43603): 41
B3 | 1230 | 6 | 29 | 1 | 0 | 2 | 0 | 0 | 7 | 1 | 0 | 0 | 575 | 493 | 21 | 447 | 0 | 3 | 121 | 0 | SPOT intensity (Boi2, P39969): 0; SPOT intensity (Sho1, P40073): 0; SPOT intensity (Abp1, P15891): 54; SPOT intensity (Pex13, P80667): 873; SPOT intensity (Fus1, P11710): 1; SPOT intensity (Bem1-2, P29366): 2680; SPOT intensity (Lsb3, P43603): 10
B4 | 1 | 0 | 3 | 0 | 1 | 0 | 1 | 1 | 0 | 0 | 0 | 0 | 490 | 0 | 0 | 132 | 0 | 2 | 0 | 0 | SPOT intensity (Boi2, P39969): 1; SPOT intensity (Sho1, P40073): 0; SPOT intensity (Abp1, P15891): 0; SPOT intensity (Pex13, P80667): 12; SPOT intensity (Fus1, P11710): 0; SPOT intensity (Bem1-2, P29366): 2; SPOT intensity (Lsb3, P43603): 0
